Results from patent publication US20030054336A1.

Experiments:
[1] = molecular target: Antigen 2 (Consensus D, biotinylated peptide from gp41 epitope region II of HIV1 subtype D) (HIV1 subtype D (consensus)); test: bridge ELISA, Bi-Antigen 2 + Dig-Antigen 4
[2] = molecular target: Antigen 1 (Consensus B, biotinylated peptide from gp41 epitope region II of HIV1 subtype B) (HIV1 subtype B (consensus)); test: bridge ELISA, Bi-Antigen 1 + Dig-Antigen 3

## Negative control
[1]
  signal: 0.03 U
[2]
  signal: 0.05 U
